This data set deals with T1, BMC11 (uncultured bacterium (metagenome)).
T1 chain: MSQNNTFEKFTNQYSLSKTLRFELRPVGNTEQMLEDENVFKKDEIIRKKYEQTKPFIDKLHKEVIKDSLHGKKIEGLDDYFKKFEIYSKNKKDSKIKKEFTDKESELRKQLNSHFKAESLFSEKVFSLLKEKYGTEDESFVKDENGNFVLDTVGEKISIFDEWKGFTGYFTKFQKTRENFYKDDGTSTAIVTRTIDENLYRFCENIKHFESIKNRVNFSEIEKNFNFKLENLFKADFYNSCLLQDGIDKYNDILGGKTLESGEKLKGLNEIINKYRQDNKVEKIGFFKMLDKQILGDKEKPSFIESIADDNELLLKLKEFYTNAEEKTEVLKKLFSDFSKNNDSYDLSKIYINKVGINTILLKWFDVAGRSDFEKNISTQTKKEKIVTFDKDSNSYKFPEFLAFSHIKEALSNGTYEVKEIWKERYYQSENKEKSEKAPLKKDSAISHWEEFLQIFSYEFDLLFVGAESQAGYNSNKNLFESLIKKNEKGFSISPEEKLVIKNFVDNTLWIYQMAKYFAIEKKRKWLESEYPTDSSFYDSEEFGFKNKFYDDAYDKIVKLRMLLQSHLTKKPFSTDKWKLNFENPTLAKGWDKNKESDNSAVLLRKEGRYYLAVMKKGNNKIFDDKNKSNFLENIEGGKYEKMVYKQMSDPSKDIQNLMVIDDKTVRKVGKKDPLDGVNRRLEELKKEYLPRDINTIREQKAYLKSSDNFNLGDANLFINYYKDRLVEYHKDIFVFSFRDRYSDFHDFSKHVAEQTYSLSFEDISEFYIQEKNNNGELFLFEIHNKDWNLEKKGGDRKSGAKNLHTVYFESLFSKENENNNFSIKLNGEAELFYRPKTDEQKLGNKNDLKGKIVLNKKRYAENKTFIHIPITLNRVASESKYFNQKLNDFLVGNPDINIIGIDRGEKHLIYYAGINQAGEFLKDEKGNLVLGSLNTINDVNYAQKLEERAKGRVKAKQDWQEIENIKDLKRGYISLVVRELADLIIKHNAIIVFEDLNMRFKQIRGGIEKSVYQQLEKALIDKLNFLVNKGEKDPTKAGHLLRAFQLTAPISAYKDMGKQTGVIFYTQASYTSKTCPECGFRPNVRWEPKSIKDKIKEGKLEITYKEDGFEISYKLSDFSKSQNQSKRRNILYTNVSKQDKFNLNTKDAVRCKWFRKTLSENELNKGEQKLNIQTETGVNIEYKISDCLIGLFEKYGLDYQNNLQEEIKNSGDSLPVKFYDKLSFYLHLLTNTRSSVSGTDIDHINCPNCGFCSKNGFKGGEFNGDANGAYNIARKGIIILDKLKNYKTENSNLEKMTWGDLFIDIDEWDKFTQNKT
Briefly: cell_activity; PAM not stated; E. coli depletion, 30 C. Summed up:
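E. coli carrying arabinose-induced (0.2%) BMC nuclease, grown at 30° C., made electrocompetent and electroporated with 50-100 ng plasmid carrying gRNA against malQ. Transformants plated on selective M9-glucose agar with kanamycin/ampicillin (± nourseothricin), and growth scored after 48 h at 30° C.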

One molecule from patent US20250277199, “NOVEL CRISPR-CAS NUCLEASES FROM METAGENOMES” (Brain Biotech AG, published 2025) can be followed below.

B1: malQ gRNA (BMC stem-loop + 24 nt spacer) ; malQ protospacer (ssRNA ; dsDNA)
RNA: GAUUUCUACUAUUGUAGAUGUGGCGGUACGUUGAUGCAUCGCG
DNA 1: GTGGCGGTACGTTGATGCATCGCG
DNA 2: CGCGATGCATCAACGTACCGCCAC
For the molecule B1, the activity is greater than 99.9 % colony reduction.
